Reference: patent publication US9327008B2, “Cell-permeant peptide-based inhibitor of kinases” (Purdue Research Foundation, priority 2008, dated 2016)

What was measured:
Assay type in all cases: biochemical
[1] = target: T1, PKA (Homo sapiens, UniProt P17612); assay: Millipore radiometric kinase activity assay, PKA (h)
T1 construct: purchased Millipore (radiometric assay service)
Experimental: (§1) A commercial radiometric assay service (Millipore, Billerica, Mass.) was used to test the specificity and potency of peptides containing a coupled transduction domain and therapeutic domain, hereinafter “complete peptides”). In these assays, if the kinase is not inhibited by an inhibitor peptide, a positively charged substrate is phosphorylated with a radiolabeled phosphate group from an ATP.
(§2) In a final reaction volume of 25 μL, PKA (h) (5-10 mU) is incubated with 8 mM MOPS pH 7.0, 0.2 mM EDTA, 30 μM LRRASLG [SEQ ID NO: 50] (Kemptide), 10 mM MgAcetate and [γ-^33P-ATP] (specific activity approx. 500 cpm/pmol, concentration as required). The reaction is initiated by the addition of the MgATP mix. After incubation for 40 minutes at room temperature, the reaction is stopped by the addition of 5 μL of a 3% phosphoric acid solution, 10 μL of the reaction is then spotted onto a P30 filtermat and washed three times for 5 minutes in 50 mM phosphoric acid and once in methanol prior to drying and scintillation counting.
(§3) IC50 values for inhibitor peptides were determined using Millipore's IC50Profiler Express service. The IC50 value was estimated from a 10-point curve of one-half log dilutions. For peptides tested for specificity, the concentration of the peptides that inhibited approximately 95% of MK2 activity was chosen to profile against a battery of kinases related to MK2, cell viability, or human disease from MilliporeKinaseProfiler service. In both assays, compounds were supplied in dimethylsulfoxide (DMSO). Every kinase activity measurement was conducted in duplicate.
(§4) Therapeutic inhibitor peptides were assayed for activity against human kinases related to MK2, cell viability, or human disease. The assays were performed using concentrations of therapeutic inhibitor peptides that yielded 2% to 8% of normal MK2 activity. Error is reported as the standard deviation between 2 samples, and “c” is rat AMPK whereas all other kinases used are human kinases.

[2] = target: T2, JAK3 (Homo sapiens, UniProt P52333); assay: Millipore radiometric kinase activity assay, JAK3 (h)
T2 construct: purchased Millipore (assay service)
T2 sequence (P52333 1-1124): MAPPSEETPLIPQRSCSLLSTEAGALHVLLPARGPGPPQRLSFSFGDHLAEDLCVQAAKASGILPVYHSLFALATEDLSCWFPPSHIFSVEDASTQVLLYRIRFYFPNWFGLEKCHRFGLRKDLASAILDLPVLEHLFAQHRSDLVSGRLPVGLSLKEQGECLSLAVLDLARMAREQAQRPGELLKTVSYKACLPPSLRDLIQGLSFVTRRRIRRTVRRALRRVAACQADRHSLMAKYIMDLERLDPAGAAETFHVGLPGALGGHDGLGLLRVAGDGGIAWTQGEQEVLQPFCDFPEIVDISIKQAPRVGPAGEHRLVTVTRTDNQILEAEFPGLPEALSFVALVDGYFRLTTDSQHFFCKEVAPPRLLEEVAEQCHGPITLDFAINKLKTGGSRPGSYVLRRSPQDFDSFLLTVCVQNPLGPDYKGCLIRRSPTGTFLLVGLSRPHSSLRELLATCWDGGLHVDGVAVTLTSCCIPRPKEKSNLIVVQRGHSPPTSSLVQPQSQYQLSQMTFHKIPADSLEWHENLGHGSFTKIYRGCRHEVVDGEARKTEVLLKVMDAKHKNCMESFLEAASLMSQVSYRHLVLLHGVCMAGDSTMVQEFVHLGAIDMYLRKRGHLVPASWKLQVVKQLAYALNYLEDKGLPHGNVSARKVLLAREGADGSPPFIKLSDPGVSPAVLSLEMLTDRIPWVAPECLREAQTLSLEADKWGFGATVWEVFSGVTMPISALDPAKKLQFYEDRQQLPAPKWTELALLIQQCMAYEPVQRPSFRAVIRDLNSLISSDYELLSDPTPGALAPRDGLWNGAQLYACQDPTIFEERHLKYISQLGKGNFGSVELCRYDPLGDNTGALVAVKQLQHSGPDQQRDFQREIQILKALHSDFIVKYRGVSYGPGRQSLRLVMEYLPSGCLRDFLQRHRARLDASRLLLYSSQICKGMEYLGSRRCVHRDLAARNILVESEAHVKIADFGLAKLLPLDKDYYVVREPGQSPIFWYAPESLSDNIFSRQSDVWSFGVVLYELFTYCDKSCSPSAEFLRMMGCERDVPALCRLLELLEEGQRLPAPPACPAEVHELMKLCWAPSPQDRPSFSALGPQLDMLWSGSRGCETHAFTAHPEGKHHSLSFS
Experimental: as §1
as §2, with “μL, JAK3” for “μL, PKA”, “EDTA, 500” for “EDTA, 30”, “μM […]” for “μM LRRASLG”, “NO: 58],” for “NO: 50] (Kemptide),”, “acid solution.” for “acid solution,”, “in 75” for “in 50”
as §3, §4

[3] = target: T3, CHK1 (Homo sapiens, UniProt O14757); assay: Millipore radiometric kinase activity assay, CHK1 (h)
T3 construct: purchased Millipore (assay service)
T3 sequence (O14757 1-476): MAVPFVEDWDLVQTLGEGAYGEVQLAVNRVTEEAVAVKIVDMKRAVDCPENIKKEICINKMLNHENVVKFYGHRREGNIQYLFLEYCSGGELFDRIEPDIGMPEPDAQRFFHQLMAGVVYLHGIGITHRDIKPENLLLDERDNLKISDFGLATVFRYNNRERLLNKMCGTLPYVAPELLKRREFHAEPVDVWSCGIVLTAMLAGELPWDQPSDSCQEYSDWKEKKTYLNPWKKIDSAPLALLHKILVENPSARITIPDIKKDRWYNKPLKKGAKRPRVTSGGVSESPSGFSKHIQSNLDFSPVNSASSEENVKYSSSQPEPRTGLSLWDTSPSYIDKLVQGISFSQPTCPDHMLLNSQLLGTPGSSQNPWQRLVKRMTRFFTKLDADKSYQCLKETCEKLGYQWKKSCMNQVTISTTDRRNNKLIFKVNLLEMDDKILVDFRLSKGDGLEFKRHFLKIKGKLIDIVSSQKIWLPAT
Experimental: as §1
as §2, with “μL, CHK1” for “μL, PKA”, “EDTA, 200” for “EDTA, 30”, “μM […]” for “μM LRRASLG”, “NO: 53],” for “NO: 50] (Kemptide),”, “acid solution.” for “acid solution,”, “in 75” for “in 50”
as §3, §4

Sequence	PKA Kinase Activity (%) (+SD %) ([1]; peptide 100 μM)	JAK3 Kinase Activity (%) (+SD %) ([2]; peptide 100 μM)	CHK1 Kinase Activity (%) (+SD %) ([3]; peptide 100 μM)	PKA Kinase Activity (%) (+SD %) ([1]; peptide 30 μM)	JAK3 Kinase Activity (%) (+SD %) ([2]; peptide 30 μM)	CHK1 Kinase Activity (%) (+SD %) ([3]; peptide 30 μM)
KAFAKLAARLYRKALARQLGVAA	103 (1) %	91 (8) %	68 (0) %	–	–	–
WLRRIKAWLRRIKALNRQLGVAA	76 (8) %	102 (2) %	54 (6) %	80 (1) %	85 (5) %	31 (5) %
